Laboratory results as given in PMC4267653, “DNA cleavage by CgII and NgoAVII requires interaction between N- and R-proteins and extensive nucleotide hydrolysis” (Nucleic Acids Research, 2014).

Tests used:
[1] = molecular target: R.CglI (containing a StrepII-tag), co-expressed with N.CglI (Corynebacterium glutamicum ATCC 13032); assay: SEC + other: SAXS; purified co-expressed RN.CglI complex; molecular weight close to the sum of the R.CglI and N.CglI dimers
[2] = molecular target: N.CglI (containing a His6-tag), co-expressed with R.CglI (Corynebacterium glutamicum ATCC 13032); assay: as above
[3] = molecular target: R.CglI (containing a StrepII-tag), co-expressed with N.CglI (Corynebacterium glutamicum ATCC 13032); assay: densitometry of SDS-PAGE; purified RN.CglI complex resolved by SDS/PAGE, molar ratio of the two bands
[4] = molecular target: N.CglI (Corynebacterium glutamicum ATCC 13032); assay: SEC; gel filtration of single proteins and domains, Superdex 200 HR, room temperature, 20 mM Tris-HCl pH 8.0, 300 mM NaCl, 5 mM 2-mercaptoethanol; 20 μM (monomer) loading concentration
[5] = molecular target: R.CglI (Corynebacterium glutamicum ATCC 13032)
[6] = molecular target: N.CglI (Corynebacterium glutamicum ATCC 13032); assay: SAXS; full-length R- and N-proteins in 20 mM Tris-HCl pH 8.0, 400 mM KCl, 0.1 mM EDTA, 1 mM DTT; molecular weight from scattering data (MoW)
[7] = molecular target: N.CglI isolated Z1 domain (Corynebacterium glutamicum ATCC 13032); assay: SEC; gel filtration of single proteins and domains, Superdex 200 HR, room temperature, 20 mM Tris-HCl pH 8.0, 300 mM NaCl, 5 mM 2-mercaptoethanol; 20 μM (monomer) loading concentration
[8] = molecular target: N.CglI isolated Z1-C domain (Corynebacterium glutamicum ATCC 13032); assay: as above
[9] = molecular target: N.CglI-DEAD-Z1 domain (Corynebacterium glutamicum ATCC 13032); assay: as above
[10] = molecular target: R.CglI (Corynebacterium glutamicum ATCC 13032); assay: as above
[11] = molecular target: R.CglI (Corynebacterium glutamicum ATCC 13032); assay: SAXS; full-length R- and N-proteins in 20 mM Tris-HCl pH 8.0, 400 mM KCl, 0.1 mM EDTA, 1 mM DTT; molecular weight from scattering data (MoW)
[12] = molecular target: R.NgoAVII (Neisseria gonorrhoeae FA1090); assay: SEC; gel filtration of single proteins and domains, Superdex 200 HR, room temperature, 20 mM Tris-HCl pH 8.0, 300 mM NaCl, 5 mM 2-mercaptoethanol; 20 μM (monomer) loading concentration
[13] = molecular target: R.NgoAVII (Neisseria gonorrhoeae FA1090); assay: SAXS; full-length R- and N-proteins in 20 mM Tris-HCl pH 8.0, 400 mM KCl, 0.1 mM EDTA, 1 mM DTT; molecular weight from scattering data (MoW)
[14] = test system: R.CglI in RN.CglI complex;N.CglI (Corynebacterium glutamicum ATCC 13032;Corynebacterium glutamicum ATCC 13032); assay: EMSA; settings: EMSA: 1 nM 33P-DNA, 1-500 nM protein monomer, 40 mM Tris-acetate pH 8.3 (25°C), 0.1 mM EDTA (NgoAVII: 5 mM Ca-acetate instead), 0.1 mg/ml BSA, 10% glycerol …
[15] = test system: R.CglI (Corynebacterium glutamicum ATCC 13032); assay: EMSA; settings: no metal, 0.1 mM EDTA; EMSA: 1 nM 33P-DNA, 1-500 nM protein monomer, 40 mM Tris-acetate pH 8.3 (25°C), 0.1 mM EDTA (NgoAVII: 5 mM Ca-acetate instead), 0.1 mg/ml BSA, 10% glycerol …
[16] = molecular target: the molecule itself; assay: SEC; gel filtration of single proteins and domains, Superdex 200 HR, room temperature, 20 mM Tris-HCl pH 8.0, 300 mM NaCl, 5 mM 2-mercaptoethanol; 20 μM (monomer) loading concentration

Molecule: N.CglI (containing a His6-tag), co-expressed with R.CglI (enzyme)
- stoichiometry N (N.CglI per R.CglI (2:2)) [1]: 1
- stoichiometry N [2]: 2
- stoichiometry N (N.CglI per R.CglI) [3]: 0.75

Molecule: N.CglI (enzyme)
- stoichiometry N [4]: 2
- ATP hydrolysis rate of N.CglI at saturating ATP (4 mM) and optimal concentrations of DNA and R.CglI (malachite green assay) [5]: 176 ATP/s
- stoichiometry N [6]: 2

Molecule: N.CglI isolated Z1 domain (domain or fragment)
- stoichiometry N [7]: 2

Molecule: N.CglI isolated Z1-C domain (domain or fragment)
- stoichiometry N [8]: 2

Molecule: N.CglI-DEAD-Z1 domain (domain or fragment)
- stoichiometry N [9]: 2

Molecule: R.CglI (containing a StrepII-tag), co-expressed with N.CglI (enzyme)
- stoichiometry N [1]: 2

Molecule: R.CglI (enzyme)
- stoichiometry N [10]: 2
- stoichiometry N [11]: 2

Molecule: R.NgoAVII (enzyme)
- stoichiometry N [12]: 2
- stoichiometry N [13]: 2

Molecule: TACAATCGATAATAGCCGCCGTGCGAGCCCATT (double strand) [33 bp cognate duplex]
- Kd [14]: 1.9 nM
- Kd [15]: 9.2 nM

B1: R.CglI isolated PLD domain (domain or fragment)
chain: PLDKFFDKELKDTHHLDITVGYISEKSLQYLLLIAGTHPDLTITLTCGMHAREGMTAAQLHHARVLHDYLSDHDRGGVFVIPRLRYHGKIYLFHKNQHTDPIAYIGSANLSAIVPGYTSTFETGVILDPAPEDLVLH
- stoichiometry N [16]: 2
